Assay in all cases: BLI
(In general: BLI is a label-free optical method that tracks binding on a fibre tip over time.)

For assay [1], the target named is Shigella sonnei 3070 LamB (Shigella sonnei 3070, UniProt Q3YUU9 26-446).
Assay [2] concerns the target E. coli LamB A384S (E. coli, UniProt P02943 26-446, A384S).
Assay [3] concerns the target E. coli LamB (E. coli, UniProt P02943 26-446).

This is an account of results in PMC11101478 (2024).

Bounds are passed on as bounds.

B1: gpJ713 (C-terminal truncation of bacteriophage lambda gpJ, starting from residue 713) (domain or fragment)
chain: APAAPSRIELTPGYFQITATPHLAVYDPTVQFEFWFSEKQIADIRQVETSTRYLGTALYWIAASINIKPGHDYYFYIRSVNTVGKSAFVEAVGRASDDAEGYLDFFKGKITESHLGKELLEKVELTEDNASRLEEFSKEWKDASDKWNAMWAVKIEQTKDGKHYVAGIGLSMEDTEEGKLSQFLVAANRIAFIDPANGNETPMFVAQGNQIFMNDVFLKRLTAPTITSGGNPPAFSLTPDGKLTAKNADISGSVNANSGTLSNVTIAENCTINGTLRAEKIVGDIVKAASAAFPRQRESSVDWPSGTRTVTVTDDHPFDRQIVVLPLTFRGSKRTVSGRTTYSMCYLKVLMNGAVIYDGAANEAVQVFSRIVDMPAGRGNVILTFTLTSTRHSADIPPYTFASDVQVMVIKKQALGISVV
On to B1, for which the dissociation rate constant (koff) (as a rule, the first-order rate constant of dissociation) in assay [1] is less than 1e-07 s⁻¹; in assay [2] it was less than 1e-07 s⁻¹; in assay [3], 0.00427 s⁻¹.
